Experimental data reported in patent US20180086837A1 (Ablynx, published 2018).

Key:
human CXCR4 [1] = target: T1, human CXCR4 (human, UniProt P61073 1-352); test: inhibition of 12G5 (competitor, 10 nM PE-labelled) binding, THP-1 cells
T1 construct: also called hCXCR4

human CXCR4 [2] = target: T1, human CXCR4; test: inhibition of 12G5 binding, Jurkat cells
human CXCR4 [3] = target: T1, human CXCR4; test: inhibition of 12G5 (competitor, 10 nM PE-labelled) binding, Jurkat cells
human CXCR4 [4] = target: T1, human CXCR4; test: inhibition of 12G5 (competitor, 10 nM PE-labelled) binding, SUPT-1 cells
human CXCR4 [5] = target: T1, human CXCR4; test: cell-based or functional assay
human CXCR4 [6] = target: T1, human CXCR4; test: cell-based or functional assay; remark: listed apart in the source
human CXCR4 [7] = target: T1, human CXCR4; test: SDF-1^AF647 displacement, SUPT-1 cells, flow cytometry, n = 3
human CXCR4 [8] = target: T1, human CXCR4; test: SDF-1^AF647 displacement, SUPT-1 cells, flow cytometry, n = 3; SDF-1^AF647 displacement on SUPT-1 cells (CXCR4 and CD4 co-expressed)
human CXCR4 [9] = target: T1, human CXCR4; test: inhibition of 12G5 (competitor, 10 nM PE-labelled) binding, SUPT-1 cells; 12G5 mAb binding inhibition on SUPT-1 cells (CXCR4 and CD4 co-expressed)
human CXCR4 [10] = target: T1, human CXCR4; test: inhibition of 12G5 (competitor, 10 nM PE-labelled) binding, Jurkat cells; 12G5 mAb binding inhibition on Jurkat cells (CD4 low)
human CXCR4 [11] = target: T1, human CXCR4; test: inhibition of 12G5 binding, Jurkat cells; 12G5 inhibition on Jurkat cells; potency ratio to monovalent 281F12

T1 sequence (P61073 whole entry): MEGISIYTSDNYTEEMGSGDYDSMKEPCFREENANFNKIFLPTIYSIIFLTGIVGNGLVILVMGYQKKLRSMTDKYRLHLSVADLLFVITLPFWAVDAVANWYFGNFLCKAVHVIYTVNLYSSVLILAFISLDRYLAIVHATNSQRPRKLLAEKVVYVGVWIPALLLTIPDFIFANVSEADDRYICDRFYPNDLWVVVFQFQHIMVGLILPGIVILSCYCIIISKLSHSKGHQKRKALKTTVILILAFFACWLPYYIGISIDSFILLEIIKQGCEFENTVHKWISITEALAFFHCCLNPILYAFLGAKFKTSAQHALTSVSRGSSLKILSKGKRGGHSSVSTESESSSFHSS

Binder	IC50 (human CXCR4 [1]) [nM]	fold loss of potency compared to monovalent CXCR4 Nanobody construct (human CXCR4 [2]) [fold]	IC50 (human CXCR4 [3]) [nM]	IC50 (human CXCR4 [4]) [nM]	IC50, SDF-1 induced Ca2+ signaling, U87-CD4-CXCR4 cells (human CXCR4 [5]) [nM]	IC50, inhibition of SDF-1a-mediated chemotaxis, Jurkat E6-1 cells (human CXCR4 [6]) [nM]	IC50, inhibition of SDF-1a-mediated chemotaxis, MOLM-13 cells (human CXCR4 [6]) [nM]	Ratio to 281F12 (fold increase in potency), chemotaxis, Jurkat E6-1 cells (human CXCR4 [6]) [fold]	Ratio to 281F12 (fold increase in potency), chemotaxis, MOLM-13 cells (human CXCR4 [6]) [fold]	IC50 (human CXCR4 [7]) [nM]	IC50 (human CXCR4 [8]) [nM]	IC50 (human CXCR4 [9]) [nM]	IC50 (human CXCR4 [10]) [nM]	fold loss of potency compared to monovalent CXCR4 Nanobody construct (human CXCR4 [11]) [fold]
281F12-35GS-03F11 (bispecific antibody, Bispecific Nanobody construct, CXCR4 arm N-terminal; also called 281F12-35GS-3F11; CXCR4-35GS-CD4; not shown: C-terminal c-myc-His6 tag (E. coli) or FLAG3-His6 tag (Pichia)) EVQLVESGGGLVQAGDSLRLSCAASGRAFSRYAMGWFRQAPGKEREFVAAIGWGPSKTNYADSVKGRFTISRDNAKNTVYLQMNTLKPEDTAVYSCAAKFVNTDSTWSRSEMYTYWGQGTQVTVSSGGGGSGGGGSGGGGSGGGGSGGGGSGGGGSGGGGSEVQLVESGGGSVQPGGSLTLSCGTSGRTFNVMGWFRQAPGKEREFVAAVRWSSTGIYYTQYADSVKSRFTISRDNAKNTVYLEMNSLKPEDTAVYYCAADTYNSNPARWDGYDFRGQGTQVTVSS	2.48	2	29.3	1.5	5.31	110	0.59	0.8	146	0.96	–	–	–	–
03F11-35GS-281F12 (bispecific antibody, Bispecific Nanobody construct, CD4 arm N-terminal; also called CD4-35GS-CXCR4; 3F11-281F12; not shown: C-terminal c-myc-His6 tag (E. coli) or FLAG3-His6 tag (Pichia)) EVQLVESGGGSVQPGGSLTLSCGTSGRTFNVMGWFRQAPGKEREFVAAVRWSSTGIYYTQYADSVKSRFTISRDNAKNTVYLEMNSLKPEDTAVYYCAADTYNSNPARWDGYDFRGQGTQVTVSSGGGGSGGGGSGGGGSGGGGSGGGGSGGGGSGGGGSEVQLVESGGGLVQAGDSLRLSCAASGRAFSRYAMGWFRQAPGKEREFVAAIGWGPSKTNYADSVKGRFTISRDNAKNTVYLQMNTLKPEDTAVYSCAAKFVNTDSTWSRSEMYTYWGQGTQVTVSS	–	–	–	–	3.43	460	1.29	0.2	67	–	1.5	56.6	631	50
